Test results: article PMC11609826 (Cancer Discovery, 2024)

Assays:
Assay in all cases: ELISA
CD28, recombinant = CD28, recombinant (Homo sapiens (assumed), UniProt P10747)
[1] = biological target: B- and T-lymphocyte attenuator (BTLA), recombinant (Homo sapiens (assumed), UniProt Q7Z6A9)
PD-1, recombinant = PD-1, recombinant (Homo sapiens (assumed), UniProt Q15116)
[2] = biological target: inducible T-cell costimulator (ICOS), recombinant (Homo sapiens (assumed), UniProt Q9Y6W8)
Chain of inducible T-cell costimulator (ICOS), recombinant (Q9Y6W8 21-199): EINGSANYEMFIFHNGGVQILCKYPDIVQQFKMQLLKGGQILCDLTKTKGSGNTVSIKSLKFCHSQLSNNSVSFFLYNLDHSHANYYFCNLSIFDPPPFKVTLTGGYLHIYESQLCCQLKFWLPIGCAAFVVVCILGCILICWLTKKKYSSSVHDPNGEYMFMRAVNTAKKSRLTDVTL

Chain of PD-1, recombinant (Q15116 25-288): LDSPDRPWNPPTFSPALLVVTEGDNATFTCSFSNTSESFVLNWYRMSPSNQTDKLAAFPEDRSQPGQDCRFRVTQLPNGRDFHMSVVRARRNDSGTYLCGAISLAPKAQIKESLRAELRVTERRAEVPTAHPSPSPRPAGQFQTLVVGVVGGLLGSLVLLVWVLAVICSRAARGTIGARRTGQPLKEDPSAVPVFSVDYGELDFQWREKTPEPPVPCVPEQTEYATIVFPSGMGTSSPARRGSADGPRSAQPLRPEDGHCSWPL

binding result (CD28, recombinant): no binding (tested: 1,000 ng/mL)
binding result [1]: no binding (tested: 1,000 ng/mL)
binding result (PD-1, recombinant): no binding (tested: 1,000 ng/mL)
binding result [2]: no binding (tested: 1,000 ng/mL)
B1: Botensilimab (antibody, V domains shown)
VH: EVQLVESGGGLVKPGGSLRLSCAASGFTFSSYSMNWVRQAPGKGLEWVSSISSSSSYIYYAESVKGRFTISRDNAKNSLYLQMNSLRAEDTAVYYCARVGLFGPFDIWGQGTLVTVSS
VL: EIVLTQSPGTLSLSPGERATLSCRASQSVSRYLGWYQQKPGQAPRLLIYGASTRATGIPDRFSGSGSGTDFTLTITRLEPEDFAVYYCQQYGSSPWTFGQGTKVEIK
